Experimental data as given in article PMC12990809.

Key:
Experiment in all cases: pulldown
[1] = target: T1, K07H8.9 (Caenorhabditis elegans) (UniProt O45180); details: 20 nM protein, 1.5 uM RNA pool; 20 mM HEPES pH 7.8, 70 mM KCl, 10 mM NaCl, 10% glycerol, 2 mM DTT, 0.1 ug/uL BSA; 30 min, 4 C
T1 sequence: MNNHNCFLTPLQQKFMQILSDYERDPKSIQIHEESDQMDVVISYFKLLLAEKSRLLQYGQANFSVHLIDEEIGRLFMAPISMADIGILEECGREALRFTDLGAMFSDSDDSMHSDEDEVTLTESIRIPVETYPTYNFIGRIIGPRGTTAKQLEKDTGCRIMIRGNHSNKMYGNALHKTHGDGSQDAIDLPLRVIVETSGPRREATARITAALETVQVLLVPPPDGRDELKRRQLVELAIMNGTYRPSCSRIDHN

[2] = target: T2, B0280.17 (Caenorhabditis elegans) (UniProt Q2V4X2); details: 20 nM protein, 1.5 uM RNA pool; 20 mM HEPES pH 7.8, 70 mM KCl, 10 mM NaCl, 10% glycerol, 2 mM DTT, 0.1 ug/uL BSA; 30 min, 4 C
T2 sequence: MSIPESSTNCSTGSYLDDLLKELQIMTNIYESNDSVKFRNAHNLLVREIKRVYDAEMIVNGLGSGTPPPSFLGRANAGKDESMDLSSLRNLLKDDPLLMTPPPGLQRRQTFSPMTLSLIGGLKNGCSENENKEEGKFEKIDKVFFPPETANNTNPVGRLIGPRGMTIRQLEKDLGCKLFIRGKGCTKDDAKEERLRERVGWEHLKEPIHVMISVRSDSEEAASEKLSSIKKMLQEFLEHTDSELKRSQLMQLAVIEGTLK

[3] = target: T3, HNRNPL C396G (Homo sapiens) (UniProt P14866); details: 20 nM protein, 1.5 uM RNA pool; 20 mM HEPES pH 7.8, 70 mM KCl, 10 mM NaCl, 10% glycerol, 2 mM DTT, 0.1 ug/uL BSA; 30 min, 4 C (protocol of this paper; not …); cited from earlier work
T3 sequence: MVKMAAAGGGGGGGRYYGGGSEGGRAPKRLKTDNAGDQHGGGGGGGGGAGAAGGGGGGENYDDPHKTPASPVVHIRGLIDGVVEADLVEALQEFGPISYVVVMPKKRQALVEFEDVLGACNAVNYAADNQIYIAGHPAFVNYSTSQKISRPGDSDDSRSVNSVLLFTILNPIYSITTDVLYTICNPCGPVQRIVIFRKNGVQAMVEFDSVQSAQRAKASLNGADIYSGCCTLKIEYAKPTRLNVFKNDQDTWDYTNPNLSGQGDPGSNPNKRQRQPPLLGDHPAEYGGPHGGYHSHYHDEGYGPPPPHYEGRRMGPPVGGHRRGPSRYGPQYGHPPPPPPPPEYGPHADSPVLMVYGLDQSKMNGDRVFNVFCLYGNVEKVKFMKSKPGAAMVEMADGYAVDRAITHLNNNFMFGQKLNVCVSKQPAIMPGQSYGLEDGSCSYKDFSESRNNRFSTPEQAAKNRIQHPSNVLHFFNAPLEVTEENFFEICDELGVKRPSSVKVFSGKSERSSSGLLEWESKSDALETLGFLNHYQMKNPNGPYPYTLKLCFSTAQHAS

[4] = target: T4, PK16782.1 E6F;T7E (Cannabis sativa) (UniProt A0A7J6H871); details: 20 nM protein, 1.5 uM RNA pool; 20 mM HEPES pH 7.8, 70 mM KCl, 10 mM NaCl, 10% glycerol, 2 mM DTT, 0.1 ug/uL BSA; 30 min, 4 C
T4 sequence: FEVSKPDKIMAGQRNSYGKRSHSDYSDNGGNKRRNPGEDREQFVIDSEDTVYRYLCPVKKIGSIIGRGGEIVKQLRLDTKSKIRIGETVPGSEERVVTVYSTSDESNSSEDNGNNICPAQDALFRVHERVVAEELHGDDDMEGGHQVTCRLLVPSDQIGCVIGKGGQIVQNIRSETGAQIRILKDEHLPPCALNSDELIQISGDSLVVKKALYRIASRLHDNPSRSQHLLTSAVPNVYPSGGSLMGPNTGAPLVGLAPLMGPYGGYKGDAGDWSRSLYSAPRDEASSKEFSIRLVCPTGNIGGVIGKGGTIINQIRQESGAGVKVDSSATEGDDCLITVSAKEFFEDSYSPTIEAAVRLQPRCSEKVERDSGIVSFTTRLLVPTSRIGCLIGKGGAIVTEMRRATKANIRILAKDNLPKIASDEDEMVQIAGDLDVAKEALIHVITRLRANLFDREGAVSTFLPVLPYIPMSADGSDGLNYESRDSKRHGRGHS

[5] = target: T5, C44B7.2 (Caenorhabditis elegans) (UniProt Q95QR5); details: 20 nM protein, 1.5 uM RNA pool; 20 mM HEPES pH 7.8, 70 mM KCl, 10 mM NaCl, 10% glycerol, 2 mM DTT, 0.1 ug/uL BSA; 30 min, 4 C
T5 sequence: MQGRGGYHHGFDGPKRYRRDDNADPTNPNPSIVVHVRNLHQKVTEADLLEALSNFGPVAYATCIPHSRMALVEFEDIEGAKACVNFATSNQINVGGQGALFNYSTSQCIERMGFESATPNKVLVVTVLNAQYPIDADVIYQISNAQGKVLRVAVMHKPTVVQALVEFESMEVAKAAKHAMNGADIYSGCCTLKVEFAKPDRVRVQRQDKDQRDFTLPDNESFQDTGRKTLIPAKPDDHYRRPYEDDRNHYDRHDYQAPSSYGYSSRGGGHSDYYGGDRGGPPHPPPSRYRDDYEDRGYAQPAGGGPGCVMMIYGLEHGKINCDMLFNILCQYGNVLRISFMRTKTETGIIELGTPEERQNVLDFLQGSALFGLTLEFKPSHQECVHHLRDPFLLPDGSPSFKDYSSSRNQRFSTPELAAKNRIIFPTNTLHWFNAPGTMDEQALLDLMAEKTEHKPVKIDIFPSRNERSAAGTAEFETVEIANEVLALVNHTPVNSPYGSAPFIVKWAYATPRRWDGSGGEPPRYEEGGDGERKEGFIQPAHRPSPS

[6] = target: T6, PK20770.1 (Cannabis sativa) (UniProt A0A7J6HVT3); details: 20 nM protein, 1.5 uM RNA pool; 20 mM HEPES pH 7.8, 70 mM KCl, 10 mM NaCl, 10% glycerol, 2 mM DTT, 0.1 ug/uL BSA; 30 min, 4 C
T6 sequence: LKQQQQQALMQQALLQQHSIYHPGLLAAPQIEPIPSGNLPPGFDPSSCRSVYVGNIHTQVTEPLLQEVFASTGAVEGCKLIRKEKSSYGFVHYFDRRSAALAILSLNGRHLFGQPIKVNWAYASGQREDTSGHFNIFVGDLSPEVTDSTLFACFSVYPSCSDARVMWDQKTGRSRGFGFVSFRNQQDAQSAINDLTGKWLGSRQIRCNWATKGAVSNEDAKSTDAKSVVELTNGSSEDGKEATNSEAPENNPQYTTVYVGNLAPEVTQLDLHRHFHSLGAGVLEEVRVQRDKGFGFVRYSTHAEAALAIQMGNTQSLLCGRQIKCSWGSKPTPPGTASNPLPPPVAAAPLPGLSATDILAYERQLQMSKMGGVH

[7] = target: PGTG_00837 (Puccinia graminis) (UniProt E3JTY5); details: 20 nM protein, 1.5 uM RNA pool; 20 mM HEPES pH 7.8, 70 mM KCl, 10 mM NaCl, 10% glycerol, 2 mM DTT, 0.1 ug/uL BSA; 30 min, 4 C
[8] = test system: T7, PK23097.1 (Cannabis sativa); details: 20 nM protein, 1.5 uM RNA pool; 20 mM HEPES pH 7.8, 70 mM KCl, 10 mM NaCl, 10% glycerol, 2 mM DTT, 0.1 ug/uL BSA; 30 min, 4 C
T7 sequence: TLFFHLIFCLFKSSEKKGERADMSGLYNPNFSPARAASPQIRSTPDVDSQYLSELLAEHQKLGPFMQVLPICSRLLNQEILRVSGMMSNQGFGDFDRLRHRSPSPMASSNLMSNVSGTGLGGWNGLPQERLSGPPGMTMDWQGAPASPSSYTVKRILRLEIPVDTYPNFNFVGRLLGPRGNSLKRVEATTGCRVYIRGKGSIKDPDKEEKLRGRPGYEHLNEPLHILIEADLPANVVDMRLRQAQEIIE

UACUNAC [RNAcompete motif RNCMPT00469]
binding signal (z-score (mean of top ten 7-mers)) [1]: 7.13

ACUAACA [RNAcompete motif RNCMPT00467]
binding signal (z-score (mean of top ten 7-mers)) [2]: 10.4

ACACACAA [RNAcompete motif RNCMPT00027]
binding signal (z-score (mean of top ten 7-mers)) [3]: 8.6

AACCAAA [RNAcompete motif RNCMPT00460]
binding signal (z-score (mean of top ten 7-mers)) [4]: 8.43

AACANA [RNAcompete motif RNCMPT00468]
binding signal (z-score (mean of top ten 7-mers)) [5]: 8.36

UUUUUU [RNAcompete motif RNCMPT00464]
binding signal (z-score (mean of top ten 7-mers)) [6]: 14.6

GGUGGA [RNAcompete motif RNCMPT00476]
binding signal (z-score (mean of top ten 7-mers)) [7]: 6.99

ACUAAC [RNAcompete motif RNCMPT00465]
binding signal (z-score (mean of top ten 7-mers)) [8]: 12.4
